Laboratory results as given in publication PMC4705692.
Read-outs that look alike come from different tables or passages of the source.

T1: Orf1 (HTH_42 DNA glycosylase) (Streptomyces sahachiroi ATCC33158, UniProt B4XYC8 1-371)
T1 sequence: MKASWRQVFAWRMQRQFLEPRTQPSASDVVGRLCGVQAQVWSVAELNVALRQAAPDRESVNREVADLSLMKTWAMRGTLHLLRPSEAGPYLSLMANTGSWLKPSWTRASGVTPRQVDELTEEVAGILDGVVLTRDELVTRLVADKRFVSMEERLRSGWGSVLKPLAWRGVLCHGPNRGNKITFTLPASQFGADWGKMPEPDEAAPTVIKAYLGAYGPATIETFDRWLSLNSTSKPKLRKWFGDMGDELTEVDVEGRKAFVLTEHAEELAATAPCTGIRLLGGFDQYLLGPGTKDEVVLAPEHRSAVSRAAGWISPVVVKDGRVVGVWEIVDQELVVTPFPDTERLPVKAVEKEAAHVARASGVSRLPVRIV


What was measured:
Experiment in all cases: EMSA
[1] = molecular target: T1, Orf1 (HTH_42 DNA glycosylase)
[2] = molecular target: T1, Orf1 (HTH_42 DNA glycosylase); remark: listed apart in the source
[3] = molecular target: T1, Orf1 (HTH_42 DNA glycosylase); remark: listed apart in the source

| Binder | binding result [1] | other results |
| --- | --- | --- |
| GAT ODN (dsDNA) DNA 1: TATTATTATGATATTATTATT DNA 2: AATAATAATATCATAATAATA | binds |  |
| GCT ODN (dsDNA) DNA 1: TATTATTATGCTATTATTATT DNA 2: AATAATAATAGCATAATAATA | binds |  |
| AAT ODN (dsDNA) DNA 1: TATTATTATATTATTATTATT DNA 2: AATAATAATAATATAATAATA | binds |  |
| GCC ODN (dsDNA) DNA 1: TATTATTATGCCATTATTATT DNA 2: AATAATAATGGCATAATAATA |  | binding result [2]: binds |
| GCC ODN azinomycin B-adducted (dsDNA, azinomycin B interstrand cross-link G-G at the GCC site (mixture with monoadduct possible)) DNA 1: TATTATTATGCCATTATTATT DNA 2: AATAATAATGGCATAATAATA |  | binding result [3]: binds |
